Test results reported in article PMC10613257.

Key:
[1] = biological target: insulin-like growth factor binding protein 5 (IGFBP5), full length, wild type (UniProt P24593); experiment: FP; conditions: enzyme
[2] = biological target: insulin-like growth factor binding protein 5 (IGFBP5), full length, wild type (UniProt P24593); experiment: fluorescence polarisation; FAM-labelled FL IGFBP5 at 5 nM; enzyme serially diluted from 10 µM to 0.5 nM; 1X PBS; 384-well plates; catalytically inactive enzymes

Chain of insulin-like growth factor binding protein 5 (IGFBP5), full length, wild type (P24593 21-272): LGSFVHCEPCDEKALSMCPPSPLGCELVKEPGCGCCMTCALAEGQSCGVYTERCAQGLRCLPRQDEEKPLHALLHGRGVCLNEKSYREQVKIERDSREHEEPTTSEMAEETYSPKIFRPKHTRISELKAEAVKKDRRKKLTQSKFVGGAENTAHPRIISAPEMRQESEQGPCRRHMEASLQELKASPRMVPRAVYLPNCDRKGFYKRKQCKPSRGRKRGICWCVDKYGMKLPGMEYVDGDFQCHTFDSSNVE

| Kd [1] | fold weaker binding than PAPP-A E483A [2] | Substance |
| --- | --- | --- |
| 2640 nM | – | PAPP-A2 E500Q (catalytically inactive) (from UniProt Q9BXP8 235-1791) |
| – | 11 fold | PAPP-A2 E500Q (catalytically inactive) (from UniProt Q9BXP8 235-1791) (enzyme) |
